Data from article PMC10221132, “DA7R: A 7-Letter Zip Code to Target PDAC” (Pharmaceutics, 2023).
Where a SMILES comes first, the peptide text is derived from it.

How the values were obtained:
[1] = Blood stability: hydrolysis of PAPTPL-peptide derivatives in mouse blood; type: in vitro ADME; settings: heparinized mouse whole blood, 5 µM from 5 mM DMSO stock, 37 °C, 4 h, UHPLC/UV 312 nm, mean of n = 3
Method: Procedures involving animals were approved by the University of Padova Ethical Committee for Animal Welfare (OPBA) and by the Italian Ministry of Health (Permit Number 846/2021-PR), and conducted with the supervision of the Central Veterinary Service of the University of Padova, in compliance with Italian Law DL 26/2014, embodying UE Directive 2010/63/EU. Mice were anesthetized and blood was withdrawn from the jugular vein and heparinized. Blood samples (1 mL) were spiked with compound (5 µM; dilution from a 5 mM stock solution in DMSO) and incubated at 37 °C for 4 h (the maximum period allowed by blood stability). Aliquots (100 µL) were taken after 10 min, 30 min, 1 h, 2 h, and 4 h, kept on ice, and treated as follows: blood was mixed with 5 volumes of 0.1%TFA in CH3CN, mixed and sonicated for 2 min, and finally centrifuged for 7 min at 12,000× g; the supernatant was collected and analyzed by UHPLC. Quantitative analyses were carried out by UHPLC (1290 Infinity LC System, Agilent Technologies, Milan, Italy) using a reversed-phase column (Zorbax RRHT Extend C18, 1.8 µm, 50 × 3.0 mm, Agilent Technologies) and a UV diode array detector (190–500 nm), at a flow rate of 0.6 mL/min. Solvents A and B were 0.1% TFA in water and CH3CN, respectively. The gradient for B was as follows: 10% for 1 min, then from 10 to 100% in 8.0 min, 100% for 0.5 min, then from 100% to 10% in 1.5 min. The injection volume was 5 µL. The eluate was preferentially monitored at 312 nm (corresponding to an absorbance maximum of psoralenic compounds). The temperature of the column was kept at 25 °C. Concentration of PAPTPL or its derivatives was determined using the following calibration curve, which correlates peak area at 312 nm (y) with compound concentration in the sample (x): y = 6.3321x. The stability in blood was expressed as % of PAPTPL released relative to the amount of the derivative initially spiked in the sample.

[2] = test system: erythrocytes; assay: Hemolysis assay; type: cell-based; settings: 5 × 10^7 erythrocytes in 1 mL PBS pH 7.4; 1, 0.5, 0.25 or 0.125 nmoles/10^7 cells; 15 min; Abs 540 nm; relative to Triton X-100 1%; n = 3
Method: Hemolysis studies were conducted as described in [48]. Briefly, freshly withdrawn blood samples were centrifuged at 2000× g for 10 min to obtain erythrocytes; the pellet was then washed three times with sterile PBS (pH 7.4). Erythrocytes (5 × 10^7 cells in 1 mL of PBS for each experimental condition) were incubated with the tested compounds at the concentrations of 1, 0.5, 0.25, or 0.125 nmoles/10^7 cells for 15 min. The samples were then centrifuged and the absorbance (Abs) of the supernatant was measured at 540 nm. Triton X-100 1% and PBS were used as positive and negative control, respectively. The percentage of hemolysis was calculated with the following equation:% hemolysis = [(Abssample − AbsPBS)/(AbsTriton X-100 − AbsPBS)] × 100

[3] = test system: HPAFII cells; assay: Cell uptake of PAPTPL-I-DA7R (HPLC/UV); type: cell-based, human; settings: 5 µM, 15 min, 37 °C, DMEM without Phenol Red and serum, nmoles/mg total protein, n ≥ 9
Method: HPAFII and Pan02 cells were seeded in 6-well plates at a density of 300,000 and 150,000 cells/well, respectively, and grown for 48 h. They were then washed twice with PBS and incubated for 15 min at 37 °C with a solution of 5 µM PAPTPL-I-DA7R in DMEM without Phenol Red and serum. At the end of the incubation, cells were washed twice, 100 µL of PBS were added, and finally the cells were scraped and collected. A volume of 100 µL of CH3CN + 0.1%TFA was added, and the mixture was vortexed and sonicated for 5 min. Samples were finally centrifuged for 5 min at 12,000× g, and the supernatant was collected and the amount of PAPTPL-I-DA7R was quantified by HPLC/UV, as described in Section 2.5 (blood stability). The remaining cell pellets were resuspended in 200 µL of SDS 2%, and the total protein amount of each sample was quantified with the BCA assay. Cell uptake of PAPTPL-I-DA7R was expressed as nmoles of PAPTPL-I-DA7R/total protein.

[4] = test system: VEGFR2; settings: surface plasmon resonance; cited from earlier work
Source text: (§1) A7R peptide binds to both neuropilin-1 (NRP-1) and vascular endothelial growth factor receptor-2 (VEGFR2/KDR), disrupting their receptor/coreceptor interaction, and impacting, therefore, on angiogenesis and tumor growth. […] Binding of A7R to NRP-1, on the other hand, mainly involves interactions of Arg with the ...

[5] = test system: NRP-1; settings: surface plasmon resonance; cited from earlier work
Source text: as §1

Row | Compound | % of conjugate hydrolyzed (PAPTPL released relative to derivative initially spiked) [1] | Hemolysis [2] | Uptake by HPAFII cells relative to cultured Pan02 cells [3] | Affinity for VEGFR2 [4] | Affinity for NRP-1 [5]
1 | CC[C@H](C)[C@H](NC(=O)Oc1ccc(CCCOc2ccc([P+](CCCc3ccc(OCCCCOc4c5ccoc5cc5oc(=O)ccc45)cc3)(c3ccccc3)c3ccccc3)cc2)cc1)C(=O)N[C@H](CCCNC(=N)N)C(=O)N1CCC[C@@H]1C(=O)N1CCC[C@@H]1C(=O)N[C@H](CC(C)C)C(=O)N[C@H](Cc1c[nH]c2ccccc12)C(=O)N[C@@H](C(=O)N[C@H](C)C(=O)O)[C@H](C)O [PAPTPL-I-DA7R] (HELM PEPTIDE1{[O=C(Oc1ccc(CCCOc2ccc([P+](CCCc3ccc(OCCCCOc4c5ccoc5cc5oc(=O)ccc45)cc3)(c3ccccc3)c3ccccc3)cc2)cc1)[*:2]].I.[dR].[dP].[dP].[dL].[dW].[dT].[dA]}$$$$V2.0) | about 30% | did not induce any hemolysis | roughly twice as much | – | –
2 | C#CC[C@@H]1NC(=O)[C@H](CCCNC(=N)N)NC(=O)[C@@H]2CCCN2C(=O)[C@@H]2CCCN2C(=O)[C@H](CC(C)C)NC(=O)[C@H](Cc2c[nH]c3ccccc23)NC(=O)[C@H]([C@@H](C)O)NC(=O)[C@H](C)NC1=O [cA7R] (HELM PEPTIDE1{A.T.W.L.P.P.R.[C#CC[C@H](N[*:1])C(=O)[*:2]]}$PEPTIDE1,PEPTIDE1,1:R1-8:R2$$$V2.0) | – | completely ineffective towards erythrocytes | – | retain affinity | retain affinity
3 | CC(C)C[C@@H]1NC(=O)[C@H](Cc2c[nH]c3ccccc23)NC(=O)[C@H]([C@@H](C)O)NC(=O)[C@H](C)NC(=O)[C@H](Cc2cn(CCOCCOCCOCCOCCNC(=O)Oc3ccc(CCCOc4ccc([P+](CCCc5ccc(OCCCCOc6c7ccoc7cc7oc(=O)ccc67)cc5)(c5ccccc5)c5ccccc5)cc4)cc3)nn2)NC(=O)[C@H](CCCNC(=N)N)NC(=O)[C@@H]2CCCN2C(=O)[C@@H]2CCCN2C1=O [PAPTPL-Teg-cA7R] | about 50% | dramatic increase in the hemolysis | – | – | –
4 | CC(C)C[C@@H](NC(=O)[C@H]1CCCN1C(=O)[C@H]1CCCN1C(=O)[C@@H](CCCNC(=N)N)NC(=O)CCCc1cn(CCOCCOCCOCCOCCNC(=O)Oc2ccc(CCCOc3ccc([P+](CCCc4ccc(OCCCCOc5c6ccoc6cc6oc(=O)ccc56)cc4)(c4ccccc4)c4ccccc4)cc3)cc2)nn1)C(=O)N[C@H](Cc1c[nH]c2ccccc12)C(=O)N[C@@H](C(=O)N[C@H](C)C(=O)O)[C@H](C)O [PAPTPL-Teg-DA7R] | about 50% | increase in the ability of the derivative (PAPTPL-Teg-DA7R) to lyse erythrocytes | – | – | –
